Paper PMC6009666, “DNA-mediated dimerization on a compact sequence signature controls enhancer engagement and regulation by FOXA1”

Tests used:
FOXA1 DBD [1] = molecular target: T1, FOXA1 DBD (Homo sapiens, UniProt P55317 158-272); assay: EMSA; conditions: monomer binding not affected; EMSA: 20 mM Tris-HCl pH 8.0, 100 mM KCl, 50 uM ZnCl2, 0.1 mg/ml BSA, 10% glycerol, 0.1% Igepal CA630, 2 mM beta-mercaptoethanol, 1 h at 4 C; 1-100 nM dsDNA; 12%
T1 sequence: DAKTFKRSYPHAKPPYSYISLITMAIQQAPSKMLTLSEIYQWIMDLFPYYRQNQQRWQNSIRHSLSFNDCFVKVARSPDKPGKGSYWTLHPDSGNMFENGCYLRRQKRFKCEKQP

FOXA1 DBD [2] = molecular target: T1, FOXA1 DBD; assay: EMSA; 1 nM DNA; monomer; n=3; EMSA: 20 mM Tris-HCl pH 8.0, 100 mM KCl, 50 uM ZnCl2, 0.1 mg/ml BSA, 10% glycerol, 0.1% Igepal CA630, 2 mM beta-mercaptoethanol, 1 h at 4 C; 1-100 nM dsDNA; 12% native PAGE (6% for full length); conditions: protein: recombinant; tags: His-tag implied (pNic28-Bsa4, Ni-NTA); label: 5' Cy5 forward strand

Row | Molecule | binding signal (fold reduction of omega vs major allele) (FOXA1 DBD [1]) | Kd (FOXA1 DBD [2]) [nM]
1 | rs2941742 minor allele | 20 | –
2 | FOXA1 monomer element (dsDNA) DNA 1: CCGCCGCCGTGTTTACTTTGCCGCCGCC DNA 2: GGCGGCGGCAAAGTAAACACGGCGGCGG | – | 2.4 ± 1.06
